According to patent US20260234252A1 (Janssen / Centocor, published 2026):
“And” between values parts separate entries of the source, which are not always exact repeats. Equal values may be shown once.

Biological target: T1, Vβ17 on human CD8+ T cells (human)
T1 construct: whole, on cells; Polyclonal donor T cells; also called Vβ17+ CD8+ T cells; M1-stimulated T-cells
Experiment: flow cytometry on FLU MP 58 stimulated CD8+ T cells, anti-human IgG4 Fc-PE
Procedure: Mouse anti-human IgG4 Fc-PE secondary antibody was used to detect the bispecific antibody.
Bispecific antibody binding affinities to CD8+ T cell were determined by flow cytometry.

T1 sequence (A0A075B6N1 22-114): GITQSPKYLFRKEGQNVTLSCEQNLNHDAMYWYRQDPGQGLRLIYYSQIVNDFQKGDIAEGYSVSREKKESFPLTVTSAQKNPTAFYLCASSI

| Binder | EC50 |
| --- | --- |
| VB11 (anti-Vβ17/anti-CD123) bispecific antibody (bispecific antibody, human IgG4 S228P, kappa, F234A L235A, also called Vβ17 and CD123 bispecific) heavy 1: QVQLQESGPGLVKPSETLSLTCTVSGYSITSGYFWNWIRQPPGKGLEWIGYISYDGSNNYNPSLKSRVTISRDTSKNQFSLKLSSVTAADTAVYYCASPSPGTGYAVDYWGQGTLVTVSSASTKGPSVFPLAPCSRSTSESTAALGCLVKDYFPEPVTVSWNSGALTSGVHTFPAVLQSSGLYSLSSVVTVPSSSLGTKTYTCNVDHKPSNTKVDKRVESKYGPPCPPCPAPEAAGGPSVFLFPPKPKDTLMISRTPEVTCVVVDVSQEDPEVQFNWYVDGVEVHNAKTKPREEQFNSTYRVVSVLTVLHQDWLNGKEYKCKVSNKGLPSSIEKTISKAKGQPREPQVYTLPPSQEEMTKNQVSLSCAVKGFYPSDIAVEWESNGQPENNYKTTPPVLDSDGSFFLVSRLTVDKSRWQEGNVFSCSVMHEALHNRFTQKSLSLSLGK light 1: DIQMTQSPSSLSASVGDRVTITCRSSQSLVHSNGNTYLHWYQQKPGKAPKFLIYKVSNRFSGVPSRFSGSGSGTDFTLTISSLQPEDFATYYCSQSTHVPFTFGQGTKLEIKRTVAAPSVFIFPPSDEQLKSGTASVVCLLNNFYPREAKVQWKVDNALQSGNSQESVTEQDSKDSTYSLSSTLTLSKADYEKHKVYACEVTHQGLSSPVTKSFNRGEC heavy 2: EVQLVQSGAEVKKPGESLKISCKGSGYSFTSYWISWVRQMPGKGLEWMGIIDPSDSDTRYSPSFQGQVTISADKSISTAYLQWSSLKASDTAMYYCARGDGSTDLDYWGQGTLVTVSSASTKGPSVFPLAPCSRSTSESTAALGCLVKDYFPEPVTVSWNSGALTSGVHTFPAVLQSSGLYSLSSVVTVPSSSLGTKTYTCNVDHKPSNTKVDKRVESKYGPPCPPCPAPEAAGGPSVFLFPPKPKDTLMISRTPEVTCVVVDVSQEDPEVQFNWYVDGVEVHNAKTKPREEQFNSTYRVVSVLTVLHQDWLNGKEYKCKVSNKGLPSSIEKTISKAKGQPREPQVYTLPPSQEEMTKNQVSLWCLVKGFYPSDIAVEWESNGQPENNYKTTPPVLDSDGSFFLYSRLTVDKSRWQEGNVFSCSVMHEALHNHYTQKSLSLSLGK light 2: EIVLTQSPGTLSLSPGERATLSCRASQSVSSSYLAWYQQKPGQAPRLLIYGASSRATGIPDRFSGSGSGTDFTLTISRLEPEDFAVYYCQQDYGFPWTFGQGTKVEIKRTVAAPSVFIFPPSDEQLKSGTASVVCLLNNFYPREAKVQWKVDNALQSGNSQESVTEQDSKDSTYSLSSTLTLSKADYEKHKVYACEVTHQGLSSPVTKSFNRGEC | 1.35 µg/mL and 9 nM |
| VB13 (Vβ17×Null) bispecific antibody (bispecific antibody, human IgG4 S228P, kappa, F234A L235A, also called Vβ17XNULL; Vβ17 x Null) heavy 1: QVQLQESGPGLVKPSETLSLTCTVSGYSITSGYFWNWIRQPPGKGLEWIGYISYDGSNNYNPSLKSRVTISRDTSKNQFSLKLSSVTAADTAVYYCASPSPGTGYAVDYWGQGTLVTVSSASTKGPSVFPLAPCSRSTSESTAALGCLVKDYFPEPVTVSWNSGALTSGVHTFPAVLQSSGLYSLSSVVTVPSSSLGTKTYTCNVDHKPSNTKVDKRVESKYGPPCPPCPAPEAAGGPSVFLFPPKPKDTLMISRTPEVTCVVVDVSQEDPEVQFNWYVDGVEVHNAKTKPREEQFNSTYRVVSVLTVLHQDWLNGKEYKCKVSNKGLPSSIEKTISKAKGQPREPQVYTLPPSQEEMTKNQVSLSCAVKGFYPSDIAVEWESNGQPENNYKTTPPVLDSDGSFFLVSRLTVDKSRWQEGNVFSCSVMHEALHNRFTQKSLSLSLGK light 1: DIQMTQSPSSLSASVGDRVTITCRSSQSLVHSNGNTYLHWYQQKPGKAPKFLIYKVSNRFSGVPSRFSGSGSGTDFTLTISSLQPEDFATYYCSQSTHVPFTFGQGTKLEIKRTVAAPSVFIFPPSDEQLKSGTASVVCLLNNFYPREAKVQWKVDNALQSGNSQESVTEQDSKDSTYSLSSTLTLSKADYEKHKVYACEVTHQGLSSPVTKSFNRGEC heavy 2: not shown light 2: not shown | 2.8 µg/mL and 18.7 nM |
